T1: NCA expressed at the surface of MC38/NCA+ cells and granulocytes (UniProt P40199 35-320, limits assumed)
T1 construct: whole, on cells
T1 sequence (looked up): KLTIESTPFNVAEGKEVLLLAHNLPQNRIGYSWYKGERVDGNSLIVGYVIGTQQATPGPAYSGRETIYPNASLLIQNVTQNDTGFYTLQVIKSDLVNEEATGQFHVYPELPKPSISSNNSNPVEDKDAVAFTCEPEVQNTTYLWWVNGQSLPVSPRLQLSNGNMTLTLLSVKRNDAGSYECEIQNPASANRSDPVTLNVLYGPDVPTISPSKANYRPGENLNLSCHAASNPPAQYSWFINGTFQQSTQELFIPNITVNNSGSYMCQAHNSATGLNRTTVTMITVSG

T2: extracellular region of the human recombinant carcinoembryonary antigen (CEA) (human, UniProt P06731 35-676, limits assumed)
T2 construct: extracellular domain; The Biacore paragraph says only 'CEA'; also called rhCEA
T2 sequence (looked up): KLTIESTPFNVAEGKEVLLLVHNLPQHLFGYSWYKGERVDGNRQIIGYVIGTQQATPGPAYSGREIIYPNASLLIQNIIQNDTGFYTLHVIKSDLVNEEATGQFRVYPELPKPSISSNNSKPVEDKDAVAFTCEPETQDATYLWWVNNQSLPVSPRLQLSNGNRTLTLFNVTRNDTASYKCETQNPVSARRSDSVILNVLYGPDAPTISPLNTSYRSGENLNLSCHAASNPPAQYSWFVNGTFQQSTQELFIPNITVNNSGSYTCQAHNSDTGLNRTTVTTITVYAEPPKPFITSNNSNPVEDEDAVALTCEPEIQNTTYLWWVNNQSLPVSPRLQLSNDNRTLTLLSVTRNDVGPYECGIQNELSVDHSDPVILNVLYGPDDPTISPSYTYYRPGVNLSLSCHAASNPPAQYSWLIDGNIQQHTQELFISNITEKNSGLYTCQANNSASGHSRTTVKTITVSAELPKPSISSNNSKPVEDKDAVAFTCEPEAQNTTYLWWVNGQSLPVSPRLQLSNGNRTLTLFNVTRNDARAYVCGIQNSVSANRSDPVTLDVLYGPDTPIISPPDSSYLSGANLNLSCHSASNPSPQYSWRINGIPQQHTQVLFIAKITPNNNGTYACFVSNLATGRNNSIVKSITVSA

B1: Anti-CD16 c13 VHH (VHH)
VHH: EVQLVESGGGLVQPGGSLRLSCSFPGSIFSLTMGWYRQAPGKERELVTSATPGGDTNYADFVKGRFTISRDNARSIIYLQMNSLKPEDTAVYYCYARTRNWGTVWGQGTQVTVSS
B2: Anti-CD16 c21 VHH (VHH)
VHH: EVQLVESGGELVQAGGSLRLSCAASGLTFSSYNMGWFRRAPGKEREFVASITWSGRDTFYADSVKGRFTISRDNAKNTVYLQMSSLKPEDTAVYYCAANPWPVAAPRSGTYWGQGTQVTVSS
B3: Anti-CD16 c72 VHH (VHH)
VHH: EVQLVESGGGLVQPGGSLTLSCVAAGSIFTFAMSWYRQAPRKERELVARIGTDDETMYKDSVKGRFTISRDNVKRTAGLQMNNLKPEDTAVYYCNARTDYRDWTVREYWGQGTQVTVSS
B4: Anti-CEA 17 VHH (VHH)
VHH: EVQLVESGGGFVQAGESLTLSCTSSTLTFTPYRMAWYRQAPGKQRDLVADISSGDGRTTNYADFAKGRFTISRDNIKNTVFLRMTNLKPEDTAVYYCNTFVSFVGIARSWGQGTQVTVSS
notes: also called VHH CEA 17; anti-CEA VHH clone 17
B5: Anti-CEA 3 VHH (VHH)
VHH: EVQLVESGGGLVQAGGSLRLSCTSSTVTFTPYQMGWYRQAPGKQRALVADISTGGSRTNYADFAKGRFTISRDDVKNTVYLQMNNLKPEDTAVYYCNTYYAMIGHARNWGQGTQVTVSS
notes: Purified from E. coli periplasm; c-myc tag recognised by mAb 9E10; also called anti-CEA VHH clone 3
B6: Anti-CEA 25 VHH (VHH)
VHH: EVQLVESGGGLVQAGDSLTLTCTSPTLTFTPYRMGWYRQAPGKQRDLVADISGGDGRTTNYADFAKGRFTISRDNVKNAVYLQMNNLKPEDTAIYYCNTYVAIVGHARSWGQGTQVTVSS
notes: Purified from E. coli periplasm; c-myc tag recognised by mAb 9E10; also called anti-CEA VHH clone 25
B7: Anti-CEA 43 VHH (VHH)
VHH: EVQLVESGGGLVQAGGSLTLSCTSSTLTFTPYRMGWYRQTPGKQRDLVADISPGDGSTKNYAGFAQGRFTISRDNIKNTVYLQMNDLKPEDTAVYYCNTYVAFVGRARTWGQGTQVTVTS
notes: Purified from E. coli periplasm; c-myc tag recognised by mAb 9E10; also called anti-CEA VHH clone 43

Key:
[1] = biological target: extracellular region of human recombinant (CD16B) receptor FcγRIIIB (human) (UniProt O75015); experiment: SPR, BIACORE 3000; VHH captured on immobilised anti-c-myc mAb 9E10, CD16 injected
[2] = biological target: T1, NCA expressed at the surface of …; experiment: FACS on cells, detection by 9E10 anti-c-myc then anti-mouse IgG-FITC
Description: At each step, the samples are incubated for 45 min, 4° C., in the dark. Between each reaction, a washing is carried out with 2 ml of PBS/1% BSA. At the last step, the cells are taken up with 0.5 ml of PBS.

[3] = biological target: T2, extracellular region of the human …; experiment: SPR, BIACORE 3000; VHH captured on immobilised anti-c-myc mAb 9E10, CEA injected
Description: The VHH (in buffer: 10 mM HEPES; 150 mM NaCl; 3 mM EDTA; 0.005% surfactant P20) is then injected and then a range of CEA or CD16 is injected on the VHH immobilised on the 9E10.

[4] = biological target: T1, NCA expressed at the surface of …; experiment: FACS on MC38/NCA+ cells and granulocytes

Sequence of extracellular region of human recombinant (CD16B) receptor FcγRIIIB (human) (O75015 17-200 limits assumed): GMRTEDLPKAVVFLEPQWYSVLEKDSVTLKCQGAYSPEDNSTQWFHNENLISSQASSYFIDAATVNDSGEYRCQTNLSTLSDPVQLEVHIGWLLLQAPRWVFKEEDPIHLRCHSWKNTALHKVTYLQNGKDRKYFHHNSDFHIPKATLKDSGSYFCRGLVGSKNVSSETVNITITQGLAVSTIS

Binder	Ka [1] [M⁻¹]	Kd [1] [nM]	koff [1] [s⁻¹]	kon [1] [M⁻¹ s⁻¹]	binding result [2]	Ka [3] [M⁻¹]	Kd [3] [nM]	koff [3] [s⁻¹]	kon [3] [M⁻¹ s⁻¹]	binding result [4]
B1	9.4e+06	101	0.00567	53000	–	–	–	–	–	–
B2	1.03e+08	9.7	0.00279	286000	–	–	–	–	–	–
B3	1.06e+07	94.6	0.0037	39000	–	–	–	–	–	–
B4	–	–	–	–	no binding	–	–	–	–	–
B5	–	–	–	–	–	7.38e+07	13.6	0.00168	124000	–
B6	–	–	–	–	–	3.15e+07	31.7	0.0036	113000	no binding (tested: 1 to 5 µg/ml)
B7	–	–	–	–	–	9.72e+07	10.3	0.00183	178000	no binding (tested: 1 to 5 µg/ml)
